B1: Speckle-type POZ protein (Homo sapiens), O43791 (parent)
chain: MSRVPSPPPPAEMSSGPVAESWCYTQIKVVKFSYMWTINNFSFCREEMGEVIKSSTFSSGANDKLKWCLRVNPKGLDEESKDYLSLYLLLVSCPKSEVRAKFKFSILNAKGEETKAMESQRAYRFVQGKDWGFKKFIRRDFLLDEANGLLPDDKLTLFCEVSVVQDSVNISGQNTMNMVKVPECRLADELGGLWENSRFTDCCLCVAGQEFQAHKAILAARSPVFSAMFEHEMEESKKNRVEINDVEPEVFKEMMCFIYTGKAPNLDKMADDLLAAADKYALERLKVMCEDALCSNLSVENAAEILILADLHSADQLKTQAVDFINYHASDVLETSGWKSMVVSHPHLVAEAYRSLASAQCPFLGPPRKRLKQS

Variants of: B1
Details: with cul3_human CUL3, Q13618

| effect of a mutation on the interaction | Variant |
| --- | --- |
| disrupting interaction strength | M233E |
